Measurements from patent US20230272445A1.

Target: purified active porcine pancreatic elastase (porcine) (UniProt P00772)
Test: cell-based or functional assay

UniProt P00772, sequence (P00772 27-266 limits assumed): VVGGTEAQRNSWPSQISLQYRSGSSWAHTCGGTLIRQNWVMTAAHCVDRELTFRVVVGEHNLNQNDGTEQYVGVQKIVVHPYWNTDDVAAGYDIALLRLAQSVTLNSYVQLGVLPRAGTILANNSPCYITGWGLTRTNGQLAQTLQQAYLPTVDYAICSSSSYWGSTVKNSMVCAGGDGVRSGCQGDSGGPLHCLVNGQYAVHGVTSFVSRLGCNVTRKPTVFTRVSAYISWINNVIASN

An A1AT concentration at which a decrease in elastase activity was detected of over 0.1 µM was found for “plasma-derived human alpha-1-antitrypsin (Prolastin-C) (from UniProt P01009 25-418)” in this work.
